For one test, the target named is T1, Human DLL3-His (human, UniProt Q9NYJ7 27-492).
T1 construct: also called huDLL3-His; hu DLL3
T1 sequence: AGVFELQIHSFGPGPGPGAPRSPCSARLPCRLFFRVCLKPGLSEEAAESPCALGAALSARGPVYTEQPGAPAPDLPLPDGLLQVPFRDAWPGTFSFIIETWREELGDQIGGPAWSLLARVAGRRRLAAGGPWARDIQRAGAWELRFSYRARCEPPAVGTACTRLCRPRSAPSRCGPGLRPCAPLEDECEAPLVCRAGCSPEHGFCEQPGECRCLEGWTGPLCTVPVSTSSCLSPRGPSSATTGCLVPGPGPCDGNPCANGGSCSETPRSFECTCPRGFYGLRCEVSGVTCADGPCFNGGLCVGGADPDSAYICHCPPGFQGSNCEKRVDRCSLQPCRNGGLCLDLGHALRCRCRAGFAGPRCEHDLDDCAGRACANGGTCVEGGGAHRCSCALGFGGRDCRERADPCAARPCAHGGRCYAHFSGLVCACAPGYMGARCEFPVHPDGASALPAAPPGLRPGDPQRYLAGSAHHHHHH
Put plainly: SPR (ProteOn XPR36), bispecific captured on protein A/G, DLL3 as analyte, Example 4A; Table 2A (Example 4A SPR run). Here is the method:
The binding affinity of purified DLL3/CD3 bispecific constructs for recombinant human and cyno DLL3-ECD and Fc-fusion proteins of human and cyno CD3 εγ subunits was determined by Surface Plasmon Resonance (SPR), using a ProteOn XPR36 instrument (Bio-Rad). The running buffer and all dilutions (except where stated) were done in PBS-T-EDTA. The GLM sensor chip (Bio-Rad) was normalized and pre-conditioned as per the manufacturer's recommendations. The sensor chip was activated with equal mixture of EDC/s-NHS in the horizontal direction for 300 sec at a flow rate of 30 ul/min and immobilized with protein A/G (20 ug/ml in 10 mM acetate pH 4.5) in the horizontal direction for 300 sec at a flowrate of 30 ul/min resulting in ˜5000 RU of protein A/G on the surface. The sensor chip was deactivated with 1M ethanolamine HCl in the horizontal direction for 300 sec at a flowrate of 30 μl/min.
For binding kinetic determination to DLL3, bispecific molecules were captured individually on the protein A/G surface vertically for 250 sec at a flowrate of 25 μl/min. The baseline was stabilized by injecting PBS-T-EDTA for 60 sec at a flowrate of 40 μl/min horizontally. The analyte (hu DLL3 or cy DLL3) was injected horizontally over the captured antibody for 600 sec at a flowrate of 40 μl/min and a dissociation for 2700 sec. […]

The next test addresses T2, EGF1+2.
T2 construct: also called Hu DLL3 EGF1+2 on HEK293 cells
T2 membrane-anchored DLL3 subdomain construct: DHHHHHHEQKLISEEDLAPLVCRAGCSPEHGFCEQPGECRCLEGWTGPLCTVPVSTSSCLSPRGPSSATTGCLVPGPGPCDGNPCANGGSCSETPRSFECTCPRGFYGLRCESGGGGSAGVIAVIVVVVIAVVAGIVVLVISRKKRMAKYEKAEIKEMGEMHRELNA
Put plainly: flow cytometry on HEK293 cells expressing the DLL3 subdomain construct, 1.6 nM binder, PE anti-human secondary, control: secondary antibody only. The gist of the method:
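Binders tested on HEK293 cells displaying the DLL3 subdomain construct; bound molecules detected by flow cytometry using PE-conjugated anti-human secondary antibody. Negative control: cells with secondary antibody only.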

Test [1] deals with T3, human DLL3 (endogenous, on SCLC cell lines NCI-H82 and SHP77 and in SCLC tissue) (human, UniProt Q9NYJ7 27-618).
T3 construct: whole, on cells; also called SCLC cell lines expressing DLL3
T3 sequence (looked up): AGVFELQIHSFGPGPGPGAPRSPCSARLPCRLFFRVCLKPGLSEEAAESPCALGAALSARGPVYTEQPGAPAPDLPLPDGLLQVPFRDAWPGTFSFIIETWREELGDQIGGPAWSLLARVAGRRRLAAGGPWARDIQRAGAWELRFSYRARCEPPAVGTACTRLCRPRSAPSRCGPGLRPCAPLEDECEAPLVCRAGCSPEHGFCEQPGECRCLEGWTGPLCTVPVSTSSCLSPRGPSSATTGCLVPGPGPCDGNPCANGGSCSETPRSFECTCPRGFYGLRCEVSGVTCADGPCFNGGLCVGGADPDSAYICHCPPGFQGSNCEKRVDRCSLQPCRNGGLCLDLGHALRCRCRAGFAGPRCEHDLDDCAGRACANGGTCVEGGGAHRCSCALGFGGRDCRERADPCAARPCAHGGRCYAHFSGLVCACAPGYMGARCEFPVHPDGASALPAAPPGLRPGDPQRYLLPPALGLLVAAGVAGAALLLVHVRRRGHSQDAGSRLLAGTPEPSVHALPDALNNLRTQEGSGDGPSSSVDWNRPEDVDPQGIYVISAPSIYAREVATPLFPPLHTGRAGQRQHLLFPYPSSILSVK
Put plainly: flow cytometry titration on NCI-H82 cells, PE anti-human secondary, x-fold over background. The source says:
(§1) Cells (T cells or human SCLC cells) were stained with increasing concentrations of two-step purified DLL3/CD3 binding proteins with increasing concentrations in FACS buffer (PBS/0.5% BSA/0.05% sodium azide). Bound molecules were detected with PE-conjugated anti-human secondary antibody (Sigma-Aldrich, #P8047).
In general terms: Flow cytometry measures light scatter and fluorescence of single cells or particles in a stream.

Test [2] deals with T3, human DLL3 (endogenous, on SCLC cell …). Put plainly: flow cytometry titration on SHP77 cells, PE anti-human secondary, x-fold over background.
From the text: as §1

Here are results for three molecules from patent US20220251236A1 (Boehringer Ingelheim, published 2022).

B1: DLL3#3/CD3#1 (bispecific antibody, human IgG1, kappa, lambda, L234A L235A)
chain 1: DIQMTQSPSAMSASVGDRVTITCRASQGISNYLVWFQQKPGKAPKRLIYAVSSLYSGVPSRFSGSGSGTEFTLTISSLQPEDFATYYCLQHDSYPYTFGQGTKLEIKRTVAAPSVFIFPPSDEQLKSGTASVVCLLNNFYPREAKVQWKVDNALQSGNSQESVTEQDSKDSTYSLSSTLTLSKADYEKHKVYACEVTHQGLSSPVTKSFNRGECGGGGSEGKSSGSGSESKSTEGKSSGSGSESKSTGGGGSQVQLVQSGAEVKKPGASVKVSCKASGYTFTSYYVHWVRQAPGQGLEWMVIINPGGGTTSYAQKFLGRVTMTRDTSTNTVYMELKSLRSEDTAVYYCARGEAVTGNYFYYGMDVWGQGTTVTVSSASTKGPSVFPLAPSSKSTSGGTAALGCLVKDYFPEPVTVSWNSGALTSGVHTFPAVLQSSGLYSLSSVVTVPSSSLGTQTYICNVNHKPSNTKVDKRVEPKSCDKTHTCPPCPAPEAAGGPSVFLFPPKPKDTLMISRTPEVTCVVVDVSHEDPEVKFNWYVDGVEVHNAKTKPREEQYNSTYRVVSVLTVLHQDWLNGKEYKCKVSNKALPAPIEKTISKAKGQPREPQVYTLPPSREEMTKNQVSLWCLVKGFYPSDIAVEWESNGQPENNYKTTPPVLDSDGSFFLYSKLTVDKSRWQQGNVFSCSVMHEALHNHYTQKSLSLSPG
chain 2: EAVVTQEPSLTVSPGGTVTLTCRSSTGAVTTSNYANWVQEKPGQLPRGLIGGTNKRAPWVPARFSGSLLGGKAALTLSGAQPEDEAEYFCALWYSNLWVFGGGTKLTVLGQPKAAPSVTLFPPSSEELQANKATLVCLISDFYPGAVKVAWKADGSPVNTGVETTTPSKQSNNKYAASSYLSLTPEQWKSHRSYSCQVTHEGSTVEKTVAPAECSGGGGSEGKSSGSGSESKSTEGKSSGSGSESKSTGGGGSEVQLVESGGGLVQPGGSLKLSCAASGFTFNTYAMNWVRQAPGKGLEWVARIRSKYNNYATYYADSVKDRFTISRDDSKNTAYLQMNNLKTEDTAVYYCVRHGNFGNSYVSWFAYWGQGTLVTVSAASTKGPSVFPLAPSSKSTSGGTAALGCLVKDYFPEPVTVSWNSGALTSGVHTFPAVLQSSGLYSLSSVVTVPSSSLGTQTYICNVNHKPSNTKVDKRVEPKSCDKTHTCPPCPAPEAAGGPSVFLFPPKPKDTLMISRTPEVTCVVVDVSHEDPEVKFNWYVDGVEVHNAKTKPREEQYNSTYRVVSVLTVLHQDWLNGKEYKCKVSNKALPAPIEKTISKAKGQPREPQVYTLPPSREEMTKNQVSLSCAVKGFYPSDIAVEWESNGQPENNYKTTPPVLDSDGSFFLVSKLTVDKSRWQQGNVFSCSVMHEALHNRFTQKSLSLSPG
notes: Heterodimer of one DLL3 chain and one CD3 chain (scFab-Fc, knob-in-hole)
Regarding B1, in the test with Human DLL3-His, the Kd was below 10 pM.

B2: DLL3#5/CD3#1 (bispecific antibody, human IgG1, kappa, lambda, L234A L235A)
chain 1: not shown
chain 2: EAVVTQEPSLTVSPGGTVTLTCRSSTGAVTTSNYANWVQEKPGQLPRGLIGGTNKRAPWVPARFSGSLLGGKAALTLSGAQPEDEAEYFCALWYSNLWVFGGGTKLTVLGQPKAAPSVTLFPPSSEELQANKATLVCLISDFYPGAVKVAWKADGSPVNTGVETTTPSKQSNNKYAASSYLSLTPEQWKSHRSYSCQVTHEGSTVEKTVAPAECSGGGGSEGKSSGSGSESKSTEGKSSGSGSESKSTGGGGSEVQLVESGGGLVQPGGSLKLSCAASGFTFNTYAMNWVRQAPGKGLEWVARIRSKYNNYATYYADSVKDRFTISRDDSKNTAYLQMNNLKTEDTAVYYCVRHGNFGNSYVSWFAYWGQGTLVTVSAASTKGPSVFPLAPSSKSTSGGTAALGCLVKDYFPEPVTVSWNSGALTSGVHTFPAVLQSSGLYSLSSVVTVPSSSLGTQTYICNVNHKPSNTKVDKRVEPKSCDKTHTCPPCPAPEAAGGPSVFLFPPKPKDTLMISRTPEVTCVVVDVSHEDPEVKFNWYVDGVEVHNAKTKPREEQYNSTYRVVSVLTVLHQDWLNGKEYKCKVSNKALPAPIEKTISKAKGQPREPQVYTLPPSREEMTKNQVSLSCAVKGFYPSDIAVEWESNGQPENNYKTTPPVLDSDGSFFLVSKLTVDKSRWQQGNVFSCSVMHEALHNRFTQKSLSLSPG
notes: as for B1
As for B2, in the test with EGF1+2, the binding result is listed as “binds”.

B3: DLL3#4/CD3#1 (bispecific antibody, human IgG1, kappa, lambda, L234A L235A)
chain 1: not shown
chain 2: EAVVTQEPSLTVSPGGTVTLTCRSSTGAVTTSNYANWVQEKPGQLPRGLIGGTNKRAPWVPARFSGSLLGGKAALTLSGAQPEDEAEYFCALWYSNLWVFGGGTKLTVLGQPKAAPSVTLFPPSSEELQANKATLVCLISDFYPGAVKVAWKADGSPVNTGVETTTPSKQSNNKYAASSYLSLTPEQWKSHRSYSCQVTHEGSTVEKTVAPAECSGGGGSEGKSSGSGSESKSTEGKSSGSGSESKSTGGGGSEVQLVESGGGLVQPGGSLKLSCAASGFTFNTYAMNWVRQAPGKGLEWVARIRSKYNNYATYYADSVKDRFTISRDDSKNTAYLQMNNLKTEDTAVYYCVRHGNFGNSYVSWFAYWGQGTLVTVSAASTKGPSVFPLAPSSKSTSGGTAALGCLVKDYFPEPVTVSWNSGALTSGVHTFPAVLQSSGLYSLSSVVTVPSSSLGTQTYICNVNHKPSNTKVDKRVEPKSCDKTHTCPPCPAPEAAGGPSVFLFPPKPKDTLMISRTPEVTCVVVDVSHEDPEVKFNWYVDGVEVHNAKTKPREEQYNSTYRVVSVLTVLHQDWLNGKEYKCKVSNKALPAPIEKTISKAKGQPREPQVYTLPPSREEMTKNQVSLSCAVKGFYPSDIAVEWESNGQPENNYKTTPPVLDSDGSFFLVSKLTVDKSRWQQGNVFSCSVMHEALHNRFTQKSLSLSPG
notes: as for B1
Consider B3, for which the “EC50 (read off the curve)” value was around 100 pM in test [1] and around 2000 pM in test [2].

Broadly, the Kd is the free concentration of one partner at which half of the binding sites on the other are occupied at equilibrium, for simple one-to-one binding. The low end stands for tighter binding, the high end for weaker binding. By EC50 (read off the curve) is commonly meant the concentration at which the effect is half-maximal. Read a high EC50 (read off the curve) as a need for much substance.
